# According to patent publication US8530168B2, “Fusion protein comprising a Caspase domain and a nuclear hormone receptor binding domain and methods and uses thereof” (Helmholtz Zentrum Munich Deutsches Forschungszentrum fuer …, priority 2007, dated 2013):
# Key:
# MEF5/N9 cells = test: TUNEL in situ cell death detection assay of MEF5/N9 clones; type: cell-based, mouse; conditions: 10^−8 M 4-OH-tamoxifen; for TUNEL result / apoptotic morphology (in words): 3 or 7 hours; for incubation time with 4-OH-tamoxifen at which TUNEL positive cells were detected: fixation at 2, 3, 5 and 7 hours
# Excerpt: TUNEL, or terminal deoxynucleotidyl transferase-mediated dUTP nick end-labeling, is acknowledged as a method of choice in the rapid detection of DNA fragmentation that results from apoptotic signaling cascades (Gavrieli et al., J. Cell Biol., 119(3), 493-501 (1992)). Cleavage of genomic DNA during apoptosis may yield double-stranded, low molecular weight DNA fragments as well as single strand breaks (“nicks”) in high molecular weight DNA. Those DNA strand breaks can be identified by terminal deoxynucleotidyl transferase (TdT), which catalyzes polymerization of labeled nucleotides to free 3′-OH DNA ends in a template-independent manner. To detect 4-OH-tamoxifen induced cell death in MEF5/N9 cells, we applied the In Situ Cell Death Detection Kit, POD by Roche according to the manufacturer's instructions. Incorporated fluorescein is detected by anti-fluorescein antibody, conjugated with horse-radish peroxidase (POD). After substrate reaction, stained cells can be analyzed under light microscopy.
# Two days prior to the TUNEL staining, round glass cover slips ([…]) were sterilized with 70% EtOH, dried under laminar flow and coated with Poly-L-lysine at a concentration of 50 μg/ml over night at 37° C., which allows a better attachment of cells on the cover slips. The following day, the cover slips were rinsed 3 times with PBS and dried for 1 hour under laminar flow. 2.5·10^5 cells were seeded onto cover slips in a 6-well plate. On the test day, medium was replaced either by fresh medium or medium supplemented with 10^−8 M 4-OH-tamoxifen. […] After fixation, cells were rinsed three times in PBS, covered with 100% methanol and incubated for 10 min or over night in a freezer and rinsed in PBS. Endogenous peroxidase activity was blocked by immersing cover slips for 10 min in 3% H2O2 in methanol prior to cell permeabilization. Cells were subsequently rinsed with PBS and incubated in permeabilization solution (0.1% Triton X-100 in freshly prepared 0.1% sodium citrate) for 2 min on ice. To generate a positive control, DNA strand breaks were induced by incubating permeabilized cells with 2 U/ml DNase I in 50 mM Tris-HCl, pH 7.5, 10 mM MgCl2, 1 mg/ml BSA for 10 min at room temperature, prior to labeling procedure. Cover slips were rinsed twice with PBS before incubating each sample with 25 μl TUNEL reaction mixture for 60 min at 37° C. in a humidified atmosphere in the dark. To avoid evaporative loss, cover slips were covered with parafilm. For a negative control 25 μl of Label solution without enzyme solution were added. Following labeling, cover slips were rinsed 3 times with PBS for 10 min each. To convert the fluorescence signal to a chromogenic signal, 25 μl of the POD solution were added on each sample which was covered with parafilm and incubated in a humidified chamber for 30 min at 37° C. Subsequently, cover slips were rinsed 3 times with PBS and incubated in freshly prepared 0.05% DAB in 0.1 M Tris-HCl (pH 7.4) supplemented with 0.02% H2O2 for 10-20 min at room temperature. The conversion procedure was controlled under a light microscope. The reaction was stopped with PBS until brown precipitates were well visible inside the cells. To remove DAB, cover slips were rinsed several times in PBS. Optionally, nuclear staining was performed by incubating cover slips for 15 min in 2.5 μg/ml DAPI diluted in PBS. Cover slips were mounted with a water-soluble, non-fluorescing mounting medium (Aqua-Poly/Mount; Polysciences Inc., Eppelheim, Germany) under SuperFrost slides (VWR International). Prior to the analysis of the samples under a light microscope, mounting medium was dried for 24 hours at room temperature.
# To provide direct evidence for 4-OH-tamoxifen-induced apoptosis in MEF5/N9 clones expressing Caspase-8 or -9 fusion proteins, an in situ application of the TUNEL assay was performed. This method detects DNA fragmentation, one of the late events that result from apoptotic signaling cascades. […]
# HeLa cells = test: Transient cotransfection with β-galactosidase reporter into HeLa cells; type: cell-based, human; conditions: 10^−8 M 4-OH-tamoxifen, Cre-ER(T2) as reference, range given jointly for HeLa and Pac2
# Method: (§1) Results are shown as mean values of triplicate samples with standard deviation. (b) Transient cotransfection of a β-galactosidase reporter with a Cre-ER(T2), myrCasp8-ER(T2), or Casp9-ER(T2) expression plasmid into murine M5/N9 (black columns), human HeLa (grey columns) or zebrafish Pac2 (open columns) cells. 12 h following transfection, cells were cultured for 36 h with 4-OH-tamoxifen at 10^−8 M and the activity of β-galactosidase in cell lysates was determined. Values obtained from transfections of the Cre-ER(T2) vector were defined as reference. Results are shown as mean values of triplicate samples with standard deviation.
# Transient transfections into M5/N9 and HeLa cells were performed with FuGene transfection reagent (Roche) following the manufacturer's instructions. Briefly, semiconfluent cultures in a 24-well plate were transfected in triplicate with 112 ng of the β-galactosidase expression vector CMVβ(Invitrogen) and the same amount of pCAG-Cre-ER(T2), pCAG-Casp8-ER(T2) or pCAG-Casp9-ER(T2) plasmid DNA. After 12 h 4-OH-tamoxifen was added at a concentration of 10^−8 M and the cultures were lysed at 48 h. Cell lysis and the measurement of β-galactosidase activity by chemiluminescence were performed with the β-galactosidase reporter gene assay (Roche) using a Centro LB960 plate luminometer (Berthold). […]
# Pac2 cells = test: Transient cotransfection with β-galactosidase reporter into Pac2 cells; type: cell-based, zebrafish; conditions: 10^−8 M 4-OH-tamoxifen, Cre-ER(T2) as reference, range given jointly for HeLa and Pac2
# Method: as §1
# PAC2 zebrafish fibroblasts were grown in Leibowitz's L15—with L-Glutamine medium supplemented with 1% Non-essential Amino Acids, 1% Penicillin/Streptomycin and 10% fetal calf serum (all Gibco) at 28° C. 3×10^6 Cells were transiently transfected with the plasmids CMVβ together with CAG-CreER(T2), CAG-myrCasp8ER(T2) or CAG-Casp9ER(T2) (500 ng each) using nanofectin transfection reagent (PAA). 24 hrs after transfection the medium was replaced and conditioned with 10^−8 M 4-OH-tamoxifen. Before lysis, the cells were incubated for another 24 hrs at 28°. […]
Molecule,TUNEL result / apoptotic morphology (in words) (MEF5/N9 cells),incubation time with 4-OH-tamoxifen at which TUNEL positive cells were detected (MEF5/N9 cells) [h],reduction of β-Galactosidase activity in presence of 4-OHT (HeLa cells),reduction of β-Galactosidase activity in presence of 4-OHT (Pac2 cells)
"myrCasp8-ER(T2): murine Caspase-8 domain with N-terminal myristoylation motif fused to ER(T2) ligand binding domain, SEQ ID NO: 23 (protein, N-terminal myristoylation motif; fusion protein myrCasp8-ER(T2)) MGSSKSKPKDPSQRSESRTSDKVYQMKNKPRGYCLIINNHDFSKAREDITQLRKMKDRKGTDCDKEALSKTFKELHFEIVSYDDCTANEIHEILEGYQSADHKNKDCFICCILSHGDKGVVYGTDGKEASIYDLTSYFTGSKCPSLSGKPKIFFIQACQGSNFQKGVPDEAGFEQQNHTLEVDSSSHKNYIPDEADFLLGMATVKNCVSYRDPVNGTWYIQSLCQSLRERCPQGDDILSILTGVNYDVSNKDDRRNKGKQMPQPTFTLRKKLFFPPLEPSAGDMRAANLWPSPLMIKRSKKNSLALSLTADQMVSALLDAEPPILYSEYDPTRPFSEASMMGLLTNLADRELVHMINWAKRVPGFVDLTLHDQVHLLECAWLEILMIGLVWRSMEHPVKLLFAPNLLLDRNQGKCVEGMVEIFDMLLATSSRFRMMNLQGEEFVCLKSIILLNSGVYTFLSSTLKSLEEKDHIHRVLDKITDTLIHLMAKAGLTLQQQHQRLAQLLLILSHIRHMSNKGMEHLYSMKCKNVVPLYDLLLEAADAHRLHAPTSRGGASVEETDQSHLATAGSTSSHSLQKYYITGEAEGFPATA",typical apoptotic morphology,3,95-99%,95-99%
"Cre-ER(T2): fusion of Cre recombinase to ER(T2) ligand binding domain, negative control, SEQ ID NO: 5 (protein, fusion protein Cre-ER(T2)) MSNLLTVHQNLPALPVDATSDEVRKNLMDMFRDRQAFSEHTWKMLLSVCRSWAAWCKLNNRKWFPAEPEDVRDYLLYLQARGLAVKTIQQHLGQLNMLHRRSGLPRPSDSNAVSLVMRRIRKENVDAGERAKQALAFERTDFDQVRSLMENSDRCQDIRNLAFLGIAYNTLLRIAEIARIRVKDISRTDGGRMLIHIGRTKTLVSTAGVEKALSLGVTKLVERWISVSGVADDPNNYLFCRVRKNGVAAPSATSQLSTRALEGIFEATHRLIYGAKDDSGQRYLAWSGHSARVGAARDMARAGVSIPEIMQAGGWTNVNIVMNYIRNLDSETGAMVRLLEDGDLEPSAGDMRAANLWPSPLMIKRSKKNSLALSLTADQMVSALLDAEPPILYSEYDPTRPFSEASMMGLLTNLADRELVHMINWAKRVPGFVDLTLHDQVHLLECAWLEILMIGLVWRSMEHPVKLLFAPNLLLDRNQGKCVEGMVEIFDMLLATSSRFRMMNLQGEEFVCLKSIILLNSGVYTFLSSTLKSLEEKDHIHRVLDKITDTLIHLMAKAGLTLQQQHQRLAQLLLILSHIRHMSNKGMEHLYSMKCKNVVPLYDLLLEAADAHRLHAPTSRGGASVEETDQSHLATAGSTSSHSLQKYYITGEAEGFPATA",TUNEL negative at any point in time,–,–,–
"Casp8-ER(T2): fusion of murine Caspase-8 domain to the ER(T2) ligand binding domain, SEQ ID NO: 20 (protein, fusion protein Casp8-ER(T2)) MSESRTSDKVYQMKNKPRGYCLIINNHDFSKAREDITQLRKMKDRKGTDCDKEALSKTFKELHFEIVSYDDCTANEIHEILEGYQSADHKNKDCFICCILSHGDKGVVYGTDGKEASIYDLTSYFTGSKCPSLSGKPKIFFIQACQGSNFQKGVPDEAGFEQQNHTLEVDSSSHKNYIPDEADFLLGMATVKNCVSYRDPVNGTWYIQSLCQSLRERCPQGDDILSILTGVNYDVSNKDDRRNKGKQMPQPTFTLRKKLFFPPLEPSAGDMRAANLWPSPLMIKRSKKNSLALSLTADQMVSALLDAEPPILYSEYDPTRPFSEASMMGLLTNLADRELVHMINWAKRVPGFVDLTLHDQVHLLECAWLEILMIGLVWRSMEHPVKLLFAPNLLLDRNQGKCVEGMVEIFDMLLATSSRFRMMNLQGEEFVCLKSIILLNSGVYTFLSSTLKSLEEKDHIHRVLDKITDTLIHLMAKAGLTLQQQHQRLAQLLLILSHIRHMSNKGMEHLYSMKCKNVVPLYDLLLEAADAHRLHAPTSRGGASVEETDQSHLATAGSTSSHSLQKYYITGEAEGFPATA",typical apoptotic morphology,7,–,–
